Patent publication US9447158B2

target: MAPKAP Kinase II (MK2)

Substance	% of … [SEQ ID NO: 124] Reaction Velocity at an Inhibitor Concentration of 100 µM [%]
KALNRQdLGVAA (peptide)	357
KALdNRQLGVAA (peptide)	95
KALNRQLGdVAA (peptide)	260
KALNdRQLGVAA (peptide)	306
KALNRdQLGVAA (peptide)	276
